{
  "source": "paper PMC9238363",
  "test_in_all_cases": "ELISA",
  "key": {"Spike S2 [1]": {"molecular_target": "T1, Spike S2 (SARS-CoV-2, UniProt P0DTC2 686-1213)"}, "Spike S1-His": {"molecular_target": "Spike S1-His (SARS-CoV-2, UniProt P0DTC2 14-685)"}, "Spike S2 [2]": {"molecular_target": "T1, Spike S2", "remark": "listed apart in the source"}, "Nucleocapsid-His": {"molecular_target": "Nucleocapsid-His (SARS-CoV-2, UniProt P0DTC9 1-419)"}},
  "note": "Read-outs that look alike come from different tables or passages of the source.",
  "data": [
    {"binder": "RBD-Ap-1 (structured_DNA) DNA: CAGCACCGACCTTGTGCTTTGGGAGTGCTGGTCCAAGGGCGTTAATGGACA", "values": [
      {"measurement": "binding result", "setting": "Spike S2 [1]", "value": "no binding"}
    ]},
    {"binder": "N-Ap (structured_DNA) DNA: GCTGGATGTCACCGGATTGTCGGACATCGGATTGTCTGAGTCATATGACACATCCAGC", "values": [
      {"measurement": "binding result", "setting": "Spike S1-His", "value": "no binding"},
      {"measurement": "binding result", "setting": "Spike S2 [2]", "value": "no binding"}
    ]},
    {"binder": "CGCAGCACCCAAGAACAAGGACTGCTTAGGATTGCGATAGGTTCGG (structured_DNA)", "note": "[RBD-Ap-2]", "values": [
      {"measurement": "binding result", "setting": "Nucleocapsid-His", "value": "no binding"},
      {"measurement": "binding result", "setting": "Spike S2 [1]", "value": "no binding"}
    ]}
  ]
}
